PMC6699081, “Development and application of a transcriptional sensor for detection of heterologous acrylic acid production in E. coli” (Microbial Cell Factories, 2019)

Legend:
[1] = tested on: T1, C=CC(N)=O; assay: purified protein; type: biochemical, Bacillus sp. (in: firmicutes); details: 20 mM potassium phosphate pH 7.2, 150 mM NaCl, 2 mM DTT, 37 °C, 15 nM enzyme, 20 min
T1 construct: C-terminal 6xHis tag, expressed in E. coli BL21(DE3), His-GraviTrap purified; catalytic triad E59, K134, C166

[2] = tested on: C=CC(N)=O; assay: purified protein; details: 20 mM potassium phosphate pH 7.2, 150 mM NaCl, 2 mM DTT, 37 °C, 15 nM enzyme, 20 min

Q: For “RAPc8 amidase (Bacillus sp. (in: firmicutes))”, which Km [1] is on record?
A: Its Km is 7.3 ± 0.1 mM.

Q: What about the Vmax [1] of the same substance?
A: Its Vmax is 106 µM/min.

Q: What about the kcat [1] of the same substance?
A: Its kcat is 118 ± 6.75 s⁻¹.

Q: What about the kcat/Km [1] of the same substance?
A: The kcat/Km was 16300 ± 1060 M⁻¹ s⁻¹.

Q: With “RAPc8 amidase (Bacillus sp. (in: firmicutes); A77T)” as the substance, how does the Km [2] read?
A: The Km was 4.5 ± 0.2 mM.

Q: What about the Vmax [2] of the same substance?
A: The Vmax was 66.7 µM/min.

Q: And the kcat [2]?
A: Its kcat is 74.1 ± 2.32 s⁻¹.

Q: What about the kcat/Km [2] of the same substance?
A: The kcat/Km was 16600 ± 357 M⁻¹ s⁻¹.

Q: What does the source list for “RAPc8 amidase (Bacillus sp. (in: firmicutes); A77T/M203V)”?
A: Km [2]: 4.6 ± 0.4 mM; Vmax [2]: 64.7 µM/min; kcat [2]: 71.9 ± 5.14 s⁻¹; kcat/Km [2]: 15600 ± 598 M⁻¹ s⁻¹

Q: With “RAPc8 amidase (Bacillus sp. (in: firmicutes); M203V)” as the substance, how does the Km [2] read?
A: Its Km is 7.2 ± 1.1 mM.

Q: And the Vmax [2]?
A: The Vmax was 147 µM/min.

Q: What about the kcat [2] of the same substance?
A: Its kcat is 163 ± 18.6 s⁻¹.

Q: What about the kcat/Km [2] of the same substance?
A: Its kcat/Km is 22900 ± 1170 M⁻¹ s⁻¹.

Q: Which results are given for “RAPc8 amidase (Bacillus sp. (in: firmicutes); A77T/D294N/K342E/M203V/M45L)”?
A: Km [2]: 7.4 ± 1.3 mM; Vmax [2]: 176 µM/min; kcat [2]: 196 ± 17.9 s⁻¹; kcat/Km [2]: 26800 ± 2390 M⁻¹ s⁻¹
